Measurements as given in patent publication US20230374153A1 (PARADIGM IMMUNOTERAPEUTICS, published 2023).
Numbering of substitutions follows the chain as printed.

B1: ACE2 LVE IgG Fc STR chimeric antibody (LiVE) (Fc fusion)
chain: QSTIEEQAKLFLDKFNVEAEDLFYQSSLASWNYNTNITEENVQNMNNAGDKWSAFLKEQSTLAQMYPLQEIQELTVKLQLQALQQNGSSVLSEDKSKRLNTILNTMSTIYSTGKVCNPDNPQECLLLEPGLNEIMANSLDYNERLWAWESWRSEVGKQLRPLYEEYVVLKNEMARANHYEDYGDYWRGDYEVNGVDGYDYSRGQLIEDVEHTFEEIKPLYEHLHAYVRAKLMNAYPSYISPIGCLPAHLLGDMWGRFWTNLYSLTVPFGQKPNIDVTDAMVDQAWDAQRIFKEAEKFFVSVGLPNMTQGFWENSMLTDPGNVQKAVCHPTAWDLGKGDFRILMCTKVTMDDFLTAHHEMGHIQYDMAYAAQPFLLRNGANEGFHEAVGEIMSLSAATPKHLKSIGLLSPDFQEDNETEINFLLKQALTIVGTLPFTYMLEKWRWMVFKGEIPKDQWMKKWWEMKREIVGVVEPVPHDETYCDPASLFHVSNDYSFIRYYTRTLYQFQFQEALCQAAKHEGPLHKCDISNSTEAGQKLFNMLRLGKSEPWTLALENVVGAKNMNVRPLLNYFEPLFTWLKDQNKNSFVGWSTDWSPYADQSIKVRISLKSALGDKAYEWNDNEMYLFRSSVAYAMRQYFLKVKNQMILFGEEDVRVANLKPRISFNFFVTAPKNVSDIIPRTEVEKAIRMSRSRINDAFRLNDNSLEFLGIQPTLGPPNQPPVSGGGGSGGGGSDKTHTCPPCPAPESTRGPSVFLFPPKPKDTLMISRTPEVTCVVVDVSHEDPEVKFNWYVDGVEVHNAKTKPREEQYNSTYRVVSVLTVLHQDWLNGKEYKCKVSNKALPAPIEKTISKAKGQPREPQVYTLPPSRDELTKNQVSLTCLVKGFYPSDIAVEWESNGQPENNYKTTPPVLDSDGSFFLYSKLTVDKSRWQQGNVFSCSVMHEALHNHYTQKSLSLSPGK
B2: ACE2 LVE IgG Fc STR YTE chimeric antibody (LiVE Longer) (Fc fusion)
chain: B1 chain with M765Y, S767T, T769E

How the values were obtained:
[1] = target: T1, FcRn (neonatal Fc receptor) (UniProt P55899 24-297; P61769 21-119); test: SPR (Biacore, ACRO Biosystems), pH 6.0
T1 construct: also called FCGRT; purified FcRn receptor

[2] = target: T1, FcRn (neonatal Fc receptor)

T1 sequence (P55899 24-297 limits assumed, chain 1 of 2): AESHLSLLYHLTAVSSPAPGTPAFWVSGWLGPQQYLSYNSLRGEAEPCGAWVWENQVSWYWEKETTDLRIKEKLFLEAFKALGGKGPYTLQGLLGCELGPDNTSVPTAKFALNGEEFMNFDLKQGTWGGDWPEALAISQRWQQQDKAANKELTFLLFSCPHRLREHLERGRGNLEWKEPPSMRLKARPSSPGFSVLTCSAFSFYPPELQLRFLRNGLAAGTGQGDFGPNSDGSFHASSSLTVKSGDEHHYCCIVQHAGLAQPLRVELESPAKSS
T1 sequence (P61769 21-119 limits assumed, chain 2 of 2): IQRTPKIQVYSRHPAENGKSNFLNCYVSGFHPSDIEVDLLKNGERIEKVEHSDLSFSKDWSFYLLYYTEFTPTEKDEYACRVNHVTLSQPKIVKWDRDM

Binder	Kd [1] [nM]	koff [2] [s⁻¹]	kon [2] [M⁻¹ s⁻¹]
B1	517		
B2	26.7	0.00412	155000
